Experimental data: the Immune Epitope Database (IEDB)
Blank lines part the entries; values can stand above or below the sequence they belong to.

Experiments:
HLA-A*02:01 [1] = assay: IEDB peptide-MHC binding, purified MHC/competitive/fluorescence; filed as Kd, often an IC50 or EC50 that approximates it; ≥ and ≤ were set here for values at or beyond the usual limits of such assays
HLA-A*03:01 [2] = assay: IEDB peptide-MHC binding, purified MHC/direct/fluorescence; filed as Kd, often an IC50 or EC50 that approximates it; ≥ and ≤ were set here for values at or beyond the usual limits of such assays
HLA-A*31:01 = assay: as above; conditions: source organism: Vibrio cholerae
HLA-B*58:01 = assay: as above
HLA-A*69:01 = assay: as above
HLA-A*02:01 [3] = assay: IEDB peptide-MHC binding, purified MHC/competitive/fluorescence; ≥ and ≤ were set here for values at or beyond the usual limits of such assays
HLA-A*01:01 [4] = assay: IEDB peptide-MHC binding, purified MHC/competitive/radioactivity; filed as Kd, often an IC50 or EC50 that approximates it; ≥ and ≤ were set here for values at or beyond the usual limits of such assays
HLA-A*30:02 = assay: as above
HLA-A*11:01 [5] = assay: IEDB peptide-MHC binding, purified MHC/direct/fluorescence; filed as Kd, often an IC50 or EC50 that approximates it; ≥ and ≤ were set here for values at or beyond the usual limits of such assays; conditions: source organism: Homo sapiens
HLA-B*27:05 = assay: as above; conditions: source organism: Homo sapiens
HLA-A*02:02 = assay: IEDB peptide-MHC binding, purified MHC/competitive/radioactivity; filed as Kd, often an IC50 or EC50 that approximates it; ≥ and ≤ were set here for values at or beyond the usual limits of such assays
HLA-A*02:03 = assay: as above
HLA-A*02:06 = assay: as above
HLA-A*02:01 [6] = assay: IEDB peptide-MHC binding, purified MHC/direct/fluorescence; filed as Kd, often an IC50 or EC50 that approximates it; ≥ and ≤ were set here for values at or beyond the usual limits of such assays
HLA-B*07:02 = assay: as above
HLA-A*01:01 [7] = assay: as above; conditions: source organism: West Nile virus
HLA-A*24:02 = assay: IEDB peptide-MHC binding, purified MHC/competitive/radioactivity; filed as Kd, often an IC50 or EC50 that approximates it; ≥ and ≤ were set here for values at or beyond the usual limits of such assays
HLA-B*40:01 = assay: IEDB peptide-MHC binding, purified MHC/direct/fluorescence; filed as Kd, often an IC50 or EC50 that approximates it; ≥ and ≤ were set here for values at or beyond the usual limits of such assays; conditions: source organism: Influenza A virus (A/Moscow/343/2003(H3N2))
HLA-A*03:01 [8] = assay: IEDB peptide-MHC binding, purified MHC/competitive/radioactivity; filed as Kd, often an IC50 or EC50 that approximates it; ≥ and ≤ were set here for values at or beyond the usual limits of such assays; conditions: source organism: Dengue virus 3 Martinique/1243/1999
HLA-A*11:01 [9] = assay: as above; conditions: source organism: Dengue virus 3 Martinique/1243/1999
[10] = source organism: Vaccinia virus WR
[11] = source organism: Mycobacterium tuberculosis
[12] = source organism: Zaire ebolavirus
[13] = source organism: Dengue virus 3 Singapore/8120/1995
[14] = source organism: Burkholderia mallei
[15] = source organism: Lymphocytic choriomeningitis virus (strain Armstrong)
[16] = source organism: Dengue virus 2 Jamaica/1409/1983
[17] = source organism: Dengue virus 3 Martinique/1243/1999
[18] = source organism: Lassa virus Josiah
[19] = source organism: SARS coronavirus Tor2
[20] = source organism: Mammarenavirus juninense

Sequence: LLVNEFYI
- Kd (HLA-A*02:01 [1]; [10]): 0.0587 µM

Sequence: TYLHGIFDR
- Kd (HLA-A*03:01 [2]; source organism: Vibrio cholerae): ≥ 20 µM
- Kd (HLA-A*31:01): 0.0171 µM

Sequence: IFISANNQW
- Kd (HLA-B*58:01; source organism: Vibrio vulnificus): 0.0228 µM

Sequence: LLLGGTSEI
- Kd (HLA-A*69:01; [11]): 0.846 µM

Sequence: LQLNETIYT
- IC50 (HLA-A*02:01 [3]; [12]): 2.7 µM

Sequence: VMAPDKPSL
- Kd (HLA-A*69:01; source organism: Yellow fever virus): ≥ 20 µM

Sequence: IAGFIENGW
- Kd (HLA-B*58:01; source organism: Influenza A virus (A/Sichuan/2/1987(H3N2))): 0.144 µM

Sequence: VVQHENLKY
- Kd (HLA-A*01:01 [4]; [13]): 2.4 µM
- Kd (HLA-A*30:02; [13]): 0.266 µM

- Kd (HLA-A*03:01 [2]; source organism: Homo sapiens): 10.4 µM
- Kd (HLA-A*11:01 [5]): 9.4 µM
- Kd (HLA-B*27:05): 1.69 µM
Sequence: ERLQICQRK

Sequence: DDQEKKILM
- IC50 (HLA-A*02:01 [3]; [12]): ≥ 1720 µM

Sequence: TANIFRGSY
- Kd (HLA-A*30:02; source organism: Dengue virus 4 Philippines/H241/1956): 0.00679 µM

Sequence: KLKVDSDSGL
- Kd (HLA-A*02:02; [10]): 0.0746 µM
- Kd (HLA-A*02:03; [10]): 0.0558 µM
- Kd (HLA-A*02:06; [10]): ≥ 10 µM

Sequence: VLRGRHDAA
- Kd (HLA-A*02:01 [6]; [14]): 9.25 µM
- Kd (HLA-A*69:01; [14]): ≥ 20 µM

Sequence: NSLILLECFV
- Kd (HLA-A*02:02; [15]): 0.00121 µM
- Kd (HLA-A*02:03; [15]): 0.0466 µM
- Kd (HLA-A*02:06; [15]): 0.00417 µM

Sequence: CLKNEGVSGL
- Kd (HLA-A*02:02; [10]): 0.127 µM
- Kd (HLA-A*02:03; [10]): 0.0251 µM
- Kd (HLA-A*02:06; [10]): 14.1 µM

- Kd (HLA-B*07:02; source organism: Homo sapiens): 0.0453 µM
Sequence: RPVSPGKDI

Sequence: VLKAMHDKKI
- Kd (HLA-A*02:02; [10]): ≥ 48.9 µM
- Kd (HLA-A*02:03; [10]): ≥ 33.9 µM
- Kd (HLA-A*02:06; [10]): ≥ 69.8 µM

- Kd (HLA-A*02:01 [1]; source organism: Escherichia coli O139:H28 str. E24377A): 0.147 µM
Sequence: LLPFGQLSI

Sequence: NITTAVKTV
- IC50 (HLA-A*02:01 [3]; source organism: Sudan ebolavirus): 22.8 µM

Sequence: EVMPEKRNVV
- Kd (HLA-A*02:02; [10]): ≥ 20.2 µM
- Kd (HLA-A*02:03; [10]): 2.62 µM
- Kd (HLA-A*02:06; [10]): 12.1 µM

Sequence: MTRGILGSY
- Kd (HLA-A*01:01 [7]): 7 µM

Sequence: NSTSTWVTY
- Kd (HLA-A*01:01 [4]; [16]): 7.23 µM
- Kd (HLA-A*30:02; [16]): 1.73 µM

Sequence: LATLNTLIT
- Kd (HLA-A*02:02; [10]): 1.16 µM
- Kd (HLA-A*02:03; [10]): 1.55 µM
- Kd (HLA-A*02:06; [10]): 14.2 µM

Sequence: IASILSLETV
- Kd (HLA-A*02:02; [10]): 0.234 µM
- Kd (HLA-A*02:03; [10]): 0.0928 µM
- Kd (HLA-A*02:06; [10]): 0.0473 µM

Sequence: NMDKVSAQNI
- Kd (HLA-A*02:02; [10]): 8.02 µM
- Kd (HLA-A*02:03; [10]): 16.8 µM
- Kd (HLA-A*02:06; [10]): ≥ 69.8 µM

Sequence: TWAQNIPTAI
- Kd (HLA-A*24:02; [17]): 0.681 µM

Sequence: GIADIRDKYM
- Kd (HLA-A*02:02; [10]): 0.000693 µM
- Kd (HLA-A*02:03; [10]): 0.0482 µM
- Kd (HLA-A*02:06; [10]): 1.78 µM

Sequence: SVDEEGCGPL
- Kd (HLA-A*02:02; [10]): 14.8 µM
- Kd (HLA-A*02:03; [10]): ≥ 38.7 µM
- Kd (HLA-A*02:06; [10]): 12.7 µM

- Kd (HLA-A*02:01 [1]; source organism: unidentified): 0.01 µM
Sequence: YLVVVGAVGV

Sequence: LLHDIGKPV
- Kd (HLA-A*69:01; [11]): ≥ 20 µM
- Kd (HLA-B*07:02; [11]): 11.5 µM

Sequence: PASISSVLT
- Kd (HLA-A*02:02; [10]): 1.38 µM
- Kd (HLA-A*02:03; [10]): 1.36 µM
- Kd (HLA-A*02:06; [10]): 1.49 µM

Sequence: SLYKGVYEL
- Kd (HLA-A*02:02; [18]): 0.0568 µM
- Kd (HLA-A*02:03; [18]): 0.00581 µM
- Kd (HLA-A*02:06; [18]): 0.394 µM

Sequence: FTNMEAQLI
- Kd (HLA-A*01:01 [4]; [16]): 2.16 µM

Sequence: TTPLISFFGL
- Kd (HLA-A*02:02; [10]): ≥ 5 µM
- Kd (HLA-A*02:03; [10]): 17.6 µM
- Kd (HLA-A*02:06; [10]): 3.36 µM

Sequence: HLTENNLYI
- Kd (HLA-A*02:02; [10]): 0.114 µM
- Kd (HLA-A*02:03; [10]): 14.4 µM
- Kd (HLA-A*02:06; [10]): 1.81 µM

Sequence: SIINHKFCNL
- Kd (HLA-A*02:02; [18]): 0.247 µM
- Kd (HLA-A*02:03; [18]): 0.562 µM
- Kd (HLA-A*02:06; [18]): 1.01 µM

Sequence: SRNSTHEMY
- Kd (HLA-A*30:02; source organism: Dengue virus 4 Thailand/0348/1991): 1.81 µM

Sequence: LFSGVSWIM
- Kd (HLA-A*24:02; [13]): 0.141 µM

Sequence: AATKRYPGVM
- Kd (HLA-A*02:02; [10]): ≥ 20.1 µM
- Kd (HLA-A*02:03; [10]): ≥ 47.9 µM
- Kd (HLA-A*02:06; [10]): ≥ 46.9 µM

Sequence: GALDVSASV
- Kd (HLA-A*02:02; [19]): 0.000718 µM
- Kd (HLA-A*02:03; [19]): 0.00234 µM
- Kd (HLA-A*02:06; [19]): 0.00227 µM

Sequence: AEDMGNGCF
- Kd (HLA-B*40:01): 0.166 µM

Sequence: KLYIALCKVT
- Kd (HLA-A*02:02; [10]): 7.11 µM
- Kd (HLA-A*02:03; [10]): 0.625 µM
- Kd (HLA-A*02:06; [10]): 6.36 µM

Sequence: CTNTFVLKK
- Kd (HLA-A*01:01 [4]; [17]): 5.09 µM
- Kd (HLA-A*03:01 [8]): 0.00971 µM
- Kd (HLA-A*11:01 [9]): 0.0778 µM

Sequence: VMYASALVLL
- Kd (HLA-A*02:02; [19]): 0.000251 µM
- Kd (HLA-A*02:03; [19]): 0.00403 µM
- Kd (HLA-A*02:06; [19]): 0.0414 µM

Sequence: AMPGVLSYV
- Kd (HLA-A*02:01 [6]; [20]): 0.0036 µM
- Kd (HLA-A*02:02; [20]): 0.00422 µM
- Kd (HLA-A*02:03; [20]): 0.00729 µM
- Kd (HLA-A*02:06; [20]): 0.0218 µM

Sequence: FMRFFTLGSI
- Kd (HLA-A*02:02; [19]): 0.0242 µM
- Kd (HLA-A*02:03; [19]): 0.00076 µM
- Kd (HLA-A*02:06; [19]): 0.195 µM
